# Reference: the Immune Epitope Database (IEDB)
# pKd: −log10 of the molar value.
# Key:
# HLA-B*51:01 [1] = test: IEDB peptide-MHC binding, purified MHC/competitive/radioactivity; filed as Kd, often an IC50 or EC50 that approximates it; ≥ and ≤ were set here for values at or beyond the usual limits of such assays
# HLA-B*53:01 = test: as above
# HLA-B*54:01 = test: as above
# HLA-B*07:02 = test: as above
# HLA-B*35:01 = test: as above
# HLA-A*68:02 = test: as above
# HLA-A*26:01 = test: as above; conditions: source organism: Dengue virus 4 Philippines/H241/1956
# HLA-A*01:01 = test: as above; conditions: source organism: Dengue virus 4 Philippines/H241/1956
# HLA-A*02:02 = test: as above; conditions: source organism: Homo sapiens
# HLA-B*51:01 [2] = test: IEDB peptide-MHC binding, purified MHC/competitive/fluorescence; filed as Kd, often an IC50 or EC50 that approximates it; ≥ and ≤ were set here for values at or beyond the usual limits of such assays; conditions: source organism: Yersinia pestis Nepal516
# HLA-B*08:01 = test: IEDB peptide-MHC binding, purified MHC/competitive/radioactivity; filed as Kd, often an IC50 or EC50 that approximates it; ≥ and ≤ were set here for values at or beyond the usual limits of such assays; conditions: source organism: Dengue virus 4 Philippines/H241/1956
# HLA-A*03:01 = test: as above; conditions: source organism: Dengue virus 4 Philippines/H241/1956
# HLA-A*33:01 = test: as above; conditions: source organism: Dengue virus 4 Philippines/H241/1956
# HLA-A*31:01 = test: as above; conditions: source organism: Dengue virus 4 Philippines/H241/1956
# [3] = source organism: Mammarenavirus choriomeningitidis
# [4] = source organism: Vaccinia virus WR
# [5] = source organism: Dengue virus 4 Philippines/H241/1956
# [6] = source organism: Dengue virus 2 Jamaica/1409/1983
# [7] = source organism: Lymphocytic choriomeningitis virus (strain Armstrong)
# [8] = source organism: Mammarenavirus brazilense
# [9] = source organism: Mammarenavirus lassaense
sequence,measurement,setting,value
CPFLFLMLL,pKd,HLA-B*51:01 [1]; [3],≤ 4.34
same,pKd,HLA-B*53:01; [3],5.68
same,pKd,HLA-B*54:01; [3],6.85
same,pKd,HLA-B*07:02; [3],≤ 4.11
same,pKd,HLA-B*35:01; [3],5.85
DPEKFNARMA,pKd,HLA-B*51:01 [1]; [4],≤ 4.39
same,pKd,HLA-B*53:01; [4],≤ 4.35
same,pKd,HLA-B*54:01; [4],6.00
same,pKd,HLA-B*07:02; [4],≤ 4.27
same,pKd,HLA-B*35:01; [4],≤ 4.16
DPQNAAVNV,pKd,HLA-B*51:01 [1]; [4],5.90
same,pKd,HLA-B*53:01; [4],≤ 4.43
same,pKd,HLA-B*54:01; [4],≤ 4.49
same,pKd,HLA-B*07:02; [4],≤ 4.11
same,pKd,HLA-B*35:01; [4],≤ 4.11
DTVTYKCPHI,pKd,HLA-A*68:02; source organism: Dengue virus 3 Martinique/1243/1999,7.05
EPLSPDTCLL,pKd,HLA-B*51:01 [1]; [4],≤ 4.16
same,pKd,HLA-B*53:01; [4],6.54
same,pKd,HLA-B*54:01; [4],≤ 4.21
same,pKd,HLA-B*07:02; [4],≤ 4.22
same,pKd,HLA-B*35:01; [4],6.55
EPVVKDKIKL,pKd,HLA-B*51:01 [1]; [4],≤ 4.16
same,pKd,HLA-B*53:01; [4],≤ 4.27
same,pKd,HLA-B*54:01; [4],≤ 4.37
same,pKd,HLA-B*07:02; [4],≤ 4.50
same,pKd,HLA-B*35:01; [4],≤ 4.16
ESPARLASAI,pKd,HLA-A*26:01,5.35
same,pKd,HLA-A*68:02; [5],6.30
ETNMITLLV,pKd,HLA-A*01:01,6.68
same,pKd,HLA-A*26:01,6.47
same,pKd,HLA-A*68:02; [5],8.14
EVEDYGFGV,pKd,HLA-A*68:02; [6],8.15
HPIMYYTKF,pKd,HLA-B*51:01 [1]; [7],5.80
same,pKd,HLA-B*53:01; [7],7.84
same,pKd,HLA-B*54:01; [7],5.42
same,pKd,HLA-B*07:02; [7],6.87
same,pKd,HLA-B*35:01; [7],7.75
IPGDILSII,pKd,HLA-B*51:01 [1]; [4],9.34
same,pKd,HLA-B*53:01; [4],7.56
same,pKd,HLA-B*54:01; [4],6.43
same,pKd,HLA-B*07:02; [4],7.36
same,pKd,HLA-B*35:01; [4],6.58
KLREYEAAL,pKd,HLA-A*02:02,7.56
same,pKd,HLA-A*68:02; source organism: Homo sapiens,≤ 4.55
LPDALLFTL,pKd,HLA-B*51:01 [1]; [8],5.48
same,pKd,HLA-B*53:01; [8],7.84
same,pKd,HLA-B*54:01; [8],5.54
same,pKd,HLA-B*07:02; [8],6.70
same,pKd,HLA-B*35:01; [8],7.88
LPHIIDEVM,pKd,HLA-B*51:01 [1]; [3],5.03
same,pKd,HLA-B*53:01; [3],6.07
same,pKd,HLA-B*54:01; [3],5.05
same,pKd,HLA-B*07:02; [3],6.81
same,pKd,HLA-B*35:01; [3],7.82
LPWLIFIQI,pKd,HLA-B*51:01 [2],5.77
LPYVGDTSMM,pKd,HLA-B*51:01 [1]; [4],5.52
same,pKd,HLA-B*53:01; [4],5.07
same,pKd,HLA-B*54:01; [4],≤ 4.16
same,pKd,HLA-B*07:02; [4],6.08
same,pKd,HLA-B*35:01; [4],6.09
LTASLVMLLV,pKd,HLA-A*68:02; source organism: Dengue virus 4 Dominica/814669/1981,7.52
LTYQNKVVRV,pKd,HLA-A*68:02; [6],7.55
MLLNRFTTR,pKd,HLA-B*08:01,5.61
same,pKd,HLA-A*03:01,7.92
same,pKd,HLA-A*33:01,7.83
same,pKd,HLA-A*31:01,8.82
MPDCGMSVL,pKd,HLA-B*51:01 [1]; [9],5.55
same,pKd,HLA-B*53:01; [9],7.08
same,pKd,HLA-B*54:01; [9],5.57
same,pKd,HLA-B*07:02; [9],7.00
same,pKd,HLA-B*35:01; [9],8.33
